Where a chain is given by its changes, count along the chain named.
B1: 113 (protein)
chain: MAQGKVALEEHFAIPETLQDSAGFVPGDYLKELFHRLLDIQDTRLKLMDAHGIETMILSLNAPAVQAIPDRRKAIEIARRANDVLAEECAKRPDRFLAFAALPLQDPDAATEELQRCVNDLGFVGALVNGFSQEGDGQTPLYYDLPQYRPFWGEVEKLDVPFYLHPRNPLPQDSRIYDGHPWLLGPTWAFAQETAVHALRLMASGLFDEHPRLNIILGHMGEGLPYMMWRIDHRVAWVKLPPRYPAKRRFMDYFNENFHITTSGNFRTQTLIDAILEIGADRILFSTDWPFENIDHASDWFNATSIAEADRVKIGRTNARRLFKLDGA
modifications: Dicamba decarboxylase variant clone: DC.4.114
B2: 118 (protein)
chain: MAKKPRIDMHSHFFPRISEQEAAKFDANHAPWLQVSAKGDTGSIMMGKNNFQPVYQALWDPAFRIEEMDAQGVDVQVTCATPVMFGYTWEANKAAQWAERMNDFALEFAAHNPQRIKVLAQVPLQDLDLACKEASRAVAAGHLGIQIGNHLGDKDLDDATLEAFLTHCANEDIPILVHGTDMMGGQRMKKWGLPWLVALAAEVQLAILSLILSGAFERIPKSLKICFSHGGGSFAFLLGLVDEAWRHVDIVREDCPRPPSEYVDRFFVDSVGNPGALELLVSVMGEDRVMLGSDYPHTTGEQKIGGLVLSSNLGESAKDKIISGNASKFFNINV
modifications: Dicamba decarboxylase variant clone: DC.5.033
B3: 119 (protein)
chain: B2 chain with T180W, P194Y, L199H, A200H, L237T, L240W, H297L
modifications: Dicamba decarboxylase variant clone:DC.5.034
B4: 120 (protein)
chain: MAIIDCHGHYTTTPKGVETYRNAQKAAVAKDPSFKYEKGQVVVSDDEIRESIENNQLKMQRERGTDLTIFSPRSTAGGHHIGNEYTSQFWTEHQNDLIRRVCDLFPKNFAPVAQLPQSPGVDPAKSVPEIVRTVEQMGFIGINLNPDPSGGYWKDTSLADRAFYPIYEKMVEYDIPAMIHPRNACNDCFHTTGSHALGADTTGFQQLIMSDVFKDFPSLKIIIPHGGGAVPYHWGRFRGLMQDQGYAPLEESALKNIYFDTCVYHQRGIDLLLDIVPTQNILFASEMIGAVRGIDAETGHNFDDTKRYIDNNTALNAEEKAMIFEGNARRVFSRLKTD
modifications: Dicamba decarboxylase variant clone: DC.12.002
B5: 122 (protein)
chain: B4 chain with T19D, Y36G, E286D, A296P
modifications: Dicamba decarboxylase variant clone: DC.12.103
B6: 117 (protein)
chain: MAKKPRIDMHSHFFPRISEQEAAKFDANHAPWLQVSAKGDTGSIMMGKNNFRPVYQALWDPAFRIEEMDAQGVDVQVTCATPVMFGYTWEANKAAQWAERMNDFALEFAAHNPQRIKVLAQVPLQDLDLACKEASRAVAAGHLGIQIGNHLGDKDLDDATLEAFLTHCANEDIPILVHPWDMMGGQRMKKWMLPVLVAAPAEVQLAILSLILSGAFERIPKSLKICFAGGGGSFAFLLGIVDLAWRHRDIVREDCPRPPSEYVDRFFVDSLVFNPGALELLVSVMGEDRVMLGSDYPFPTGEQKIGGLVLSSNLGESAKDKIISGNASKFFNINV
modifications: Dicamba decarboxylase variant clone: DC.5.008
B7: 121 (protein)
chain: MAIIDCHGHYTTTPKGVEDYRNAQKAAVAKDPSFKGEKGQVVVSDDEIRESIENNQLKMQRERGTDLTIFSPRWDAGGHHIGNEYTSQFWTEHQNDLIRRVCDLFPKNFAPVAQLPQSPGVDPAKSVPEIVRTVEQMGFIGINLNPDPSGGYWKDTSLADRAFYPIYEKMVEYDIPAMIHPRLACNACFHTGLSVGLGADTTGFQQLIMSDVFKDFPSLKIIIPHGGGAVPYHWGRFRGLMQDQGYAPLEESALKNIYFDTCVYHQRGIDLLLDIVPTQNILFASEMIGAVRGIDPETGHNFDDTKRYIDNNTALNAEEKAMIFEGNARRVFSRLKTD
modifications: Dicamba decarboxylase variant clone: DC.12.014
B8: 95 (protein, listed as Pseudomonas fluorescens)
chain: B6 chain with V195W, A199M, V203T, A228G, G229H, I240R, L243N, L271A, T300L
B9: 100 (protein, listed as Reinekea blandensis)
chain: MAIIDCHGHYTTTPKGVEDYRNAQKAAVAKDPSFKGEKGQVVVSDDEIRESIENNQLKMQRERGTDLTIFSPRASWMGHHIGNEYTSQFWTEHQNDLIRRVCDLFPKNFAPVAQLPQSPGVDPAKSVPEIVRTVEQMGFIGINLNPDPSGGYWKDTSLADRAFYPIYEKMVEYDIPAMIHVSAACNDCFHTTGSHYLGADTTGFQQLIMSDVFKDFPSLKIIIPHGGGAVPYHWGRFRGLMQDQGYAPLEESALKNIYFDTCVYHQRGIDLLLDIVPTQNILFASEMIGAVRGIDPETGHNFDDTKRYIDNNTALNAEEKAMIFEGNARRVFSRLKTD

Test: Dicamba decarboxylase activity / product analysis with purified His-tag protein (14C assay and product detection of Example 1)
Type: biochemical
Settings: computationally designed variants
Method: To obtain purified protein for activity assays, IPTG-induced cells were harvested by centrifugation at 7,000 rpm for 10 mins Cell pellet from 50 mL of cell culture was frozen and thawed twice and then lysed in 8004 lysis buffer consisting of 50 mM potassium phosphate buffer (pH7.0), 50 μM ZnSO4, 5% EG, 50 mM KCl, 1 mM DTT, 0.2 mg/ml lysozyme, 1/200 protease inhibitor cocktail (EMD set3, EDTA free), and 1/2,000 endonuclease. Lysate was then centrifuged at 13,000 rpm for 45 min at 4° C. Supernatant was loaded onto 200 μL Ni-NTA columns pre-equilibrated with 10 mM His Buffer containing 25 mM potassium phosphate buffer pH7, 50 μM ZnSO4, 5% EG, 200 mM KCl, and 10 mM histidine. The columns were let sit at 4° C. until the entire supernatant passed through. Each column was then washed with 200 ul 10 mM His Buffer twice and then 4 times with 800 ul loading buffer consisting of 25 mM potassium phosphate buffer pH7, 50 μM ZnSO4, 5% EG, 200 mM KCl. Protein was eluted with 1504 of Elution Buffer consisting of 25 mM potassium phosphate buffer pH7, 50 μM ZnSO4, 5% EG, 100 mM KCl, 100 mM histidine, 10% glycerol. The protein concentration was measured by Bradford assay. Purified protein was used for dicamba decarboxylase activity measurement as described in Example 1. Enzyme kinetic characterization of selected dicamba decarboxylases was determined through GC/MS measurement of 2,5-DCP or PEPC coupled assay as described in Example 1.

| Molecule | dicamba decarboxylase activity relative to parent sequence |
| --- | --- |
| B1 | displays an increase in dicamba decarboxylase activity |

Same assay, conditions: purified protein, dicamba substrate

| Molecule | reaction products detected | other products (than 2,5-DCA) |
| --- | --- | --- |
| B1 | three major products (CO2, 4-chloro-3-methoxy phenol, and 2,5-DCP) detected |  |
| B2 |  | not detected |
| B3 |  | not detected |
| B4 |  | not detected |
| B5 |  | not detected |
| B6 |  | not detected |
| B7 |  | not detected |

Same assay, conditions: statement of the description

| Molecule | dicamba decarboxylase activity |
| --- | --- |
| B2 | shown herein to have dicamba decarboxylase activity |
| B3 | shown herein to have dicamba decarboxylase activity |
| B4 | shown herein to have dicamba decarboxylase activity |
| B5 | shown herein to have dicamba decarboxylase activity |
| B6 | shown herein to have dicamba decarboxylase activity |
| B8 | Neither of the native proteins have dicamba decarboxylase activity |
| B9 | Neither of the native proteins have dicamba decarboxylase activity |
| B7 | shown herein to have dicamba decarboxylase activity |

Test: GC/MS detection of decarboxylation product 2,5-DCA (toluene trapping or head space)
Type: biochemical
Settings: purified protein, dicamba substrate
Method: Alternatively, dicamba decarboxylase activity can be monitored by measuring decarboxylation products other than CO2 using product detection methods. The decarboxylation product of dicamba, 2,5-dichloro anisole or 2,5-DCA (FIG. 1C), is a volatile compound with a flash point of 21° C. To capture this volatile compound for detection, 140 ul of toluene solution is added on top of 1 ml reaction mixture to form a trapping layer in a 1.5 ml eppendorf tube. […] The reaction is kept still at room temperature overnight before being vortex mixed and centrifuged at 14,000 rpm for 15 minutes. The top toluene phase is carefully removed using a micropipette and transferred into a 12×32 mm polypropylene vial (Vial 11 mm) from MicroLiter Analytical Supplies, Inc. (catalog number 11-5300-100). The vial is sealed with Crimp seal (11 mm with FEP/Nat Rubber) from MicroLiter Analytical Supplies, Inc. (catalog number 11-0020A) using a E-Z Crimper™ 11 mm from Wheaton Inc. lul of the toluene mixture is taken from the sealed vials and injected in splitless mode into a GC/MS system for sample analysis (Agilent GC/MS system with a 6890A GC, a 5973N MSD and a CTC CombiPAL auto-sampler or with a 7890A GC, a 5975C MSD and an Agilent GC Sampler 80 auto-sampler). The GC parameters are: Agilent DB-5MS column (30 m length, 0.25 mm diameter, 0.25 um film) or equivalent; The GC inlet temperature, 250° C.; Carry gas, helium in constant flow mode (1.2 mL/min); The GC oven temperature program, initial temperature at 70° C. for 1 min, ramping to 200° C. at 15° C./min, and then ramping to 250° C. at 30° C./min. MS data acquisition is done in SIM (selected ion monitoring) mode, monitoring the positive ion at M/Z 176 for the molecular ion of […]. The solvent delay for MS acquisition is set at 4 min. Another method for detection of 2,5-DCA is a head-space GC/MS method. Briefly, reaction mixtures in 500 ul reaction volume are prepared in 1.5 ml 12×32 mm glass vials (Microliter Analytical Supplies, Cat#11-1200) for head space analysis. Glass vials are sealed with magnetic cap from MicroLiter Analytical Supplies, Inc. (catalog number 11-0030AT) using a E-Z Crimper™ 11 mm from Wheaton Industries Inc. The reaction is carried out at room temperature for various amount of time and stopped by heating at 95° C. for 5 min. The reaction vial is transferred to a agitator for incubation at 80° C. for 5 min at 500 rpm. With a syringe preheated at 80° C., 1000 uL of head space is injected with sample fill speed at 100 uL/sec. GC/MS parameters for headspace analysis are the same as for liquid sample analysis.

| Molecule | minor decarboxylation product 2,5-DCA |
| --- | --- |
| B2 | detected |
| B3 | detected |
| B4 | detected |
| B5 | detected |
| B6 | detected |
| B7 | detected |

Test: Saturation mutagenesis of SEQ ID NO:109: dicamba decarboxylation activity of point mutants (CO2 released), fold of backbone (Tables 7, 8, Megatable 1)
Settings: decarboxylation activity (CO2 released) of point mutant vs unmutated backbone protein; backbone SEQ ID NO: 109

| Molecule | Fold Activity [fold] |
| --- | --- |
| B1 | 1.4 |
| B2 | 1.4 |
| B3 | 1.6 |
| B4 | 1.3 |
| B5 | 0.9 |
| B6 | 1.8 |
| B8 | 1.4 |
| B9 | 2.5 |
| B7 | 1 |

Source: patent US20160040149A1, “Compositions Having Dicamba Decarboxylase Activity and Methods of Use” (priority 2013, published 2016)
